Measured values published in patent US20210032338A1.

Biological target: T Cell Receptor Gamma Variable 9 (TRGV9) on human γδ T cells (human) (UniProt Q99603)
Experiment: binding to γδ-enriched T cells, 1 h at 37 °C (panel γδ T-cell binding)

B1: VG9B2, chimera human IgG1 mAb (silent Fc) of mouse anti-human TCR Vγ9 clone B3 (antibody, V domains shown)
VH: QGQMQQSGAELVKPGASVKLSCKTSGFTFSSNYISWLKQKPGQSLEWIAWIHGGTGGIGYNQKFTGKAQLTVDTSSTTAYMQFSSLTTEDSAIYYCARRGYGAWFAYWGQGTLVTVSA
VL: DIQMTQSPASLSASVGETVTITCRASENIHNYLAWYQQKQGKSPQLLVYNAKTLADGVPSRFSGSGSGTQYSLKINSLQPEDFGNYYCQHFWSYPLTFGAGTKLELK
How did the EC50 turn out when B1 was run?
The EC50 was 560 pM.
